Data taken from article PMC2898433.

Target: GST-Kar2p (S. cerevisiae) (UniProt P16474)
Test: pull-down

B1: His-Sil1p (natural protein)
chain: TILHSSIHSVPSGGEIISAEDLKELEISGNSICVDNRCYPKIFEPRHDWQPILPGQELPGGLDIRINMDTGLKEAKLNDEKNVGDNGSHELIVSSEDMKASPGDYEFSSDFKEMRNIIDSNPTLSSQDIARLEDSFDRIMEFAHDYKHGYKIITHEFALLANLSLNENLPLTLRELSTRVITSCLRNNPPVVEFINESFPNFKSKIMAALSNLNDSNHRSSNILIKRYLSILNELPVTSEDLPIYSTVVLQNVYERNNKDKQLQIKVLELISKILKADMYENDDTNLILFKRNAENWSSNLQEWANEFQEMVQNKSIDELHTRTFFDTLYNLKKIFKSDITINKGFLNWLAQQCKARQSNLDNGLQERDTEQDSFDKKLIDSRHLIFG
- reduction of binding in the presence of ATP: 50%
